Assay results: publication PMC7611088 (Nature methods, 2021)

Molecular target: MbNbF3^c7HopQ (H. pylori)
Assay: BLI

B1: membrane scaffold protein MSP1D1 (other)
chain: STFSKLREQLGPVTQEFWDNLEKETEGLRQEMSKDLEEVKAKVQPYLDDFQKKWQEEMELYRQKVEPLRAELQEGARQKLHELQEKLSPLGEEMRDRARAHVDALRTHLAPYSDELRQRLAARLEALKENGGARLAEYHAKATEHLSTLSEKAKPALEDLRQGLLPVLESFKVSFLSALEEYTKKLNTQ
modifications: biotinylated with EZ-link NHS-Biotin (biotin/antigen ratio 2 - 2.5) for BLI only
B1: binds.
